Read-outs that look alike come from different tables or passages of the source. One block for each molecule: values may come before it.
What was measured:
[1] = target: Nicotiana benthamiana subtilisin-like serine protease SBT2, recombinant, C-terminal hexahistidine tag; assay: enzyme inhibition (fluorogenic substrate); pH 5.5, 30°C
[2] = target: Nicotiana benthamiana subtilisin-like serine protease SBT1, recombinant, C-terminal hexahistidine tag; assay: as above
gp41 peptide […] = assay: SPR, antibody captured on Protein A chip, peptide as analyte, 1:1 model
[3] = target: T1, Nicotiana benthamiana subtilisin-like serine protease SBT1, recombinant, C-terminal hexahistidine tag; assay: enzyme inhibition (fluorogenic substrate); pH 5.5, 30°C
T1 chain: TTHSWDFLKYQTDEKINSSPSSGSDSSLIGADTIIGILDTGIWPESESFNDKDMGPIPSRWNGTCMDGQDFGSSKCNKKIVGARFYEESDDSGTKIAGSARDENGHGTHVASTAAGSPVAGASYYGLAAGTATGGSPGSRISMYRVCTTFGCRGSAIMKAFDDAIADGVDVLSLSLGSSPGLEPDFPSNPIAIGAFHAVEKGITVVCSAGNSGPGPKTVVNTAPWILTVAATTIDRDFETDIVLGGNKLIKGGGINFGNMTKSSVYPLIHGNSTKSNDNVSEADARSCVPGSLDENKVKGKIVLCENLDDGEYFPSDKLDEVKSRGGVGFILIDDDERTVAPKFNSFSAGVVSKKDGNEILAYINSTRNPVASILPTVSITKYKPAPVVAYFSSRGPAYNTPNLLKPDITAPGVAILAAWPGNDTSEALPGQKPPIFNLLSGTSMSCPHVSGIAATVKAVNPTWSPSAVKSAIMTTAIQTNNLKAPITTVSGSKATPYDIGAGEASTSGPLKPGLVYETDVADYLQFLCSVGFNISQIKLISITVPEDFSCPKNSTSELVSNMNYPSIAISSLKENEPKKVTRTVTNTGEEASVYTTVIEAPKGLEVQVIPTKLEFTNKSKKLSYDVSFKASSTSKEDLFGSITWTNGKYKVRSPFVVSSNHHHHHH

[4] = target: T2, Nicotiana benthamiana subtilisin-like serine protease SBT2, recombinant, C-terminal hexahistidine tag; assay: as above
T2 chain: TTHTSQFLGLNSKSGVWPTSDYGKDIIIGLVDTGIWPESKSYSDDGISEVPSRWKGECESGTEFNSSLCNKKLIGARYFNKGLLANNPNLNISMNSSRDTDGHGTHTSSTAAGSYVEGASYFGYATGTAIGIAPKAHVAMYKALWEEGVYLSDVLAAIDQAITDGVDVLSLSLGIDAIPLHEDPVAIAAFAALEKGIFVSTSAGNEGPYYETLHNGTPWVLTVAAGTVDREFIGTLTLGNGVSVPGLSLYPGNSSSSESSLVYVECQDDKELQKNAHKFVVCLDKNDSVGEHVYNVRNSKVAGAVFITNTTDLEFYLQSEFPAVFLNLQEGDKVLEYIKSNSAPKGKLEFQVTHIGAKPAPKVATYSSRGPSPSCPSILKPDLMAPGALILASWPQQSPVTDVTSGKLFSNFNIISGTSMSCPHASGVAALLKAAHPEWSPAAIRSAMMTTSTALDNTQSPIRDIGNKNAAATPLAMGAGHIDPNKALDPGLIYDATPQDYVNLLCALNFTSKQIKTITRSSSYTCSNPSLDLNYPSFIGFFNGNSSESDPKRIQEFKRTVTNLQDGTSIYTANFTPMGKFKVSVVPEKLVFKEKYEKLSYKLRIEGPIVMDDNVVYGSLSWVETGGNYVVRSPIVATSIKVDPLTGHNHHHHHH

Ki [1]: 27 nM
Molecule: S106g065370 (subtilisin propeptide-like inhibitor from S. lycopersicum)

Ki [2]: 51 nM
Molecule: S111g018590 (subtilisin propeptide-like inhibitor from S. lycopersicum)

Molecule: cleaved 2F5 (2F5 degradation product after digestion with apoplastic fluid proteases) (antibody)
fold reduction of affinity against intact 2F5 (gp41 peptide […]): > 20 fold

Ki [3]: 81 nM
Ki [4]: 45 nM
B1: Arabidopsis thaliana subtilisin propeptide-like inhibitor 2 (other)
chain: RTLGPAPDNQQMKCYLVNVDFALYHGDCKQYQQLLKKVVHGRSAKDALVYCYKEVMSGFAAKLTAAEAEKLKGEKGISAIDVDHIFSMDVEPHSHGKGY
